According to patent US20230374484:
Changes are numbered by the printed parent chain.

B1: An96 fIX (ancestral sequence 96 factor IX) (protein)
chain: YNSGKLEEFVRGNLERECIEEKCSFEEAREVFENTEKTTEFWKQYVDGDQCESNPCLNGGSCKDDINSYECWCRFGFEGKNCELDATCSIKNGRCKQFCKKSADNKVVCSCTEGYRLAEDQKSCEPAVPFPCGRVSVSHTSKKLTRAETIFSNMDYENSTEAETILDNVTQSTQSFNDFTRVVGGENAKPGQFPWQVLLNGKIDAFCGGSIINEKWVVTAAHCIEPGVKITVVAGEHNIEKTEPTEQKRNVIRVIPHHNYNATINKYSHDIALLELDKPLTLNSYVTPICIANREYTNIFLKFGSGYVSGWGRVFNRGRSASILQYLRVPLVDRATCLRSTKFTIYNNMFCAGYHEGGKDSCQGDSGGPHVTEVEGTSFLTGIISWGEECAMKGKYGIYTKVSRYVNWIKEKTKLT
B2: fIX optimized sequence Beta (no Padua) (protein)
chain: YNSGKLEEFVQGNLERECMEEKCSFEEAREVFENTERTTEFWKQYVDGDQCESNPCLNGGSCKDDINSYECWCPFGFEGKNCELDATCNIKNGRCEQFCKNSADNKVVCSCTEGYRLAENQKSCEPAVPFPCGRVSVSQTSKLTRAETVFPDVDYVNSTEAETILDNITQSTQSFNDFTRVVGGEDAKPGQFPWQVVLNGKVDAFCGGSIVNEKWIVTAAHCVETGVKITVVAGEHNIEETEHTEQKRNVIRIIPHHNYNAAINKYNHDIALLELDEPLVLNSYVTPICIANKEYTNIFLKFGSGYVSGWGRVFHRGRSASVLQYLRVPLVDRATCLRSTKFTIYNNMFCAGFHEGGRDSCQGDSGGPHVTEVEGTSFLTGIISWGEECAMKGKYGIYTKVSRYVNWIKEKTKLT
B3: fIX optimized sequence Delta (no Padua) (protein)
chain: B2 chain with E277K, V280T, K293R
B4: fIX optimized sequence Gamma (no Padua) (protein)
chain: B2 chain with E277K
B5: fIX optimized sequence Gamma (with Padua) (protein)
chain: B2 chain with E277K, R338L
B6: fIX optimized sequence Beta (with Padua) (protein)
chain: B2 chain with R338L

Molecular target: T1, activated clotting factor VIII (fVIIIa), P00451
T1 chain: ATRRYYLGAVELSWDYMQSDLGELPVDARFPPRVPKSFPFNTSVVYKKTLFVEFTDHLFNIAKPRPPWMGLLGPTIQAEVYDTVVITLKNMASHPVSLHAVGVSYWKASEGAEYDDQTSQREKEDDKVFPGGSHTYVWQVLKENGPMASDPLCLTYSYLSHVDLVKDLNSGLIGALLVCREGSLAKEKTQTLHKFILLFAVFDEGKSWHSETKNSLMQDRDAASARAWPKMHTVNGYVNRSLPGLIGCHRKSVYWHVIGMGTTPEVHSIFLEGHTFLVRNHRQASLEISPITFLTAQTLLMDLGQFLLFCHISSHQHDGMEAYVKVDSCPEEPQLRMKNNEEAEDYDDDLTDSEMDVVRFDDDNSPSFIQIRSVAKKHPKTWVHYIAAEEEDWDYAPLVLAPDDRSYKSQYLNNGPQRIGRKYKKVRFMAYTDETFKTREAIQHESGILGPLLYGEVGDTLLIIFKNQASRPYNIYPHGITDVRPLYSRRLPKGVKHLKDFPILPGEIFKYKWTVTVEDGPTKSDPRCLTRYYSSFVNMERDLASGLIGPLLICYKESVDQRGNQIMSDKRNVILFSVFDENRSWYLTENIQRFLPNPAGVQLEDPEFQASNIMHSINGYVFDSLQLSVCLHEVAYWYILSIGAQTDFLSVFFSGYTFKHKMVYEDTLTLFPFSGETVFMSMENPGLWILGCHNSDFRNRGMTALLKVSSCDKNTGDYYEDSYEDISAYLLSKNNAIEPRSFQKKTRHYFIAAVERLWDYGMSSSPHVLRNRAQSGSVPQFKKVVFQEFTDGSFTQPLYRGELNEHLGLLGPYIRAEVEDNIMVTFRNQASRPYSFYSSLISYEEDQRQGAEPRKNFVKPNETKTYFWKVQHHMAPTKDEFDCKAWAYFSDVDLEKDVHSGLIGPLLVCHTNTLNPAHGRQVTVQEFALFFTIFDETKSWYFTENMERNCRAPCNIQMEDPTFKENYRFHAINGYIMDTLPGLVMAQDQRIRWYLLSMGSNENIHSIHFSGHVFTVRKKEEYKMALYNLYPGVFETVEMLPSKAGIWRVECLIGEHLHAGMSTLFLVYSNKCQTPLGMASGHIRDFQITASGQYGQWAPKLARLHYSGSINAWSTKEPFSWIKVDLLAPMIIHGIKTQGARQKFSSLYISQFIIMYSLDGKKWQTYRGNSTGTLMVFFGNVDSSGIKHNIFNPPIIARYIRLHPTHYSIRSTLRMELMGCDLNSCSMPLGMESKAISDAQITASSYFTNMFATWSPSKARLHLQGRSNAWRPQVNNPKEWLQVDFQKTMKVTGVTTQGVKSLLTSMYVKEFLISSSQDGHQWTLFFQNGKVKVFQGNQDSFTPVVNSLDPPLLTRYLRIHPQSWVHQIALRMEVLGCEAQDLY

Protein | fIX activity (one-stage APTT-dependent coagulation assay)
B1 | exhibits higher fIX activity
B2 | exhibits higher fIX activity
B3 | exhibits higher fIX activity
B4 | exhibits higher fIX activity
B5 | exhibits higher fIX activity
B6 | exhibits higher fIX activity
